{"source": "paper PMC9348789", "about": "(2022)", "key": {"[1]": {"molecular_target": "T1, SARS-CoV-2 nucleocapsid protein (N) (SARS-CoV-2, UniProt P0DTC9 1-419)", "test": "BLI"}, "[2]": {"molecular_target": "T1, SARS-CoV-2 nucleocapsid protein (N)", "test": "BLI", "remark": "listed apart in the source"}}, "data": [{"binder": "CCL11 (ligand) not shown", "values": [{"measurement": "koff", "setting": "[1]", "result": 0.0045, "unit": "s⁻¹"}, {"measurement": "Kd", "setting": "[2]", "result": 72, "unit": "nM"}]}, {"binder": "CCL28 (ligand) SEAILPIASSCCTEVSHHISRRLLERVNMCRIQRADGDCDLAAVILHVKRRRICVSPHNHTVKQWMKVQAAKKNGKGNVCHRKKHHGKRNSNRAHQGKHETYGHKTPY", "values": [{"measurement": "koff", "setting": "[1]", "result": 0.00087, "unit": "s⁻¹"}, {"measurement": "Kd", "setting": "[2]", "result": 22, "unit": "nM"}]}, {"binder": "CXCL11 (ligand) FPMFKRGRCLCIGPGVKAVKVADIEKASIMYPSNNCDKIEVIITLKENKGQRCLNPKSKQARLIIKKVERKNF", "values": [{"measurement": "koff", "setting": "[1]", "result": 0.0033, "unit": "s⁻¹"}, {"measurement": "Kd", "setting": "[2]", "result": 130, "unit": "nM"}]}, {"binder": "CCL5 (ligand) SPYSSDTTPCCFAYIARPLPRAHIKEYFYTSGKCSNPAVVFVTRKNRQVCANPEKKWVREYINSLEMS", "values": [{"measurement": "koff", "setting": "[1]", "result": 0.00019, "unit": "s⁻¹"}, {"measurement": "Kd", "setting": "[2]", "result": 10, "unit": "nM"}]}, {"binder": "CXCL14 (ligand) SKCKCSRKGPKIRYSDVKKLEMKPKYPHCEEKMVIITTKSVSRYRGQEHCLHPKLQSTKRFIKWYNAWNEKRRVYEE", "values": [{"measurement": "koff", "setting": "[1]", "result": 0.0019, "unit": "s⁻¹"}, {"measurement": "Kd", "setting": "[2]", "result": 45, "unit": "nM"}]}, {"binder": "CXCL4 (ligand) EAEEDGDLQCLCVKTTSQVRPRHITSLEVIKAGPHCPTAQLIATLKNGRKICLDLQAPLYKKIIKKLLES", "values": [{"measurement": "koff", "setting": "[1]", "result": 0.00053, "unit": "s⁻¹"}, {"measurement": "Kd", "setting": "[2]", "result": 170, "unit": "nM"}]}, {"binder": "CCL21 (ligand) SDGGAQDCCLKYSQRKIPAKVVRSYRKQEPSLGCSIPAILFLPRKRSQAELCADPKELWVQQLMQHLDKTPSPQKPAQGCRKDRGASKTGKKGKGSKGCKRTERSQTPKGP", "values": [{"measurement": "koff", "setting": "[1]", "result": 0.0014, "unit": "s⁻¹"}, {"measurement": "Kd", "setting": "[2]", "result": 14, "unit": "nM"}]}, {"binder": "CCL26 (ligand) TRGSDISKTCCFQYSHKPLPWTWVRSYEFTSNSCSQRAVIFTTKRGKKVCTHPRKKWVQKYISLLKTPKQL", "values": [{"measurement": "koff", "setting": "[1]", "result": 0.00093, "unit": "s⁻¹"}, {"measurement": "Kd", "setting": "[2]", "result": 26, "unit": "nM"}]}, {"binder": "CXCL9 (ligand) TPVVRKGRCSCISTNQGTIHLQSLKDLKQFAPSPSCEKIEIIATLKNGVQTCLNPDSADVKELIKKWEKQVSQKKKQKNGKKHQKKKVLKVRKSQRSRQKKTT", "values": [{"measurement": "koff", "setting": "[1]", "result": 0.00085, "unit": "s⁻¹"}, {"measurement": "Kd", "setting": "[2]", "result": 12, "unit": "nM"}]}]}
